The values below come from article PMC4871749 (Nature chemical biology, 2016).

Test [1] has as its target Taf14 YEATS domain (construct of the fluorescence assay) (yeast) (UniProt P35189). The test is described as follows: other fluorescence titration.
The target in test [2] is T1, Taf14 YEATS domain, Taf14 (1-132), uniformly 15N-labeled (yeast, UniProt P35189 1-132).
T1 sequence (looked up): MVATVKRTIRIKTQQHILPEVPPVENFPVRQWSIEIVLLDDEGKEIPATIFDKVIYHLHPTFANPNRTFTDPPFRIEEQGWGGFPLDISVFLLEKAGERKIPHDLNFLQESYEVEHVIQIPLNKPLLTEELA
Description: NMR titration.

Test [3] deals with T2, Taf14 YEATS domain (residues 1-137) (yeast, UniProt P35189 1-137).
T2 sequence (looked up): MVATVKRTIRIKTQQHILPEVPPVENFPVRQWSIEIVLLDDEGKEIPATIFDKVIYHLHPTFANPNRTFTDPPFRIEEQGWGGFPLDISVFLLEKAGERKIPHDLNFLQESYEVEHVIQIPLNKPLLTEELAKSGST
Description: crystal structure.

No end group written: not given here. *: point of attachment. Crotonyl(E) = C/C=C/C(=O)*

As to “H3K9cr5-13 peptide (residues 5-13 of H3, crotonylated at lysine 9) (from UniProt P61830 6-14)”, in test [1], the Kd – broadly, the concentration at which binding is half-saturated – was 9.5 µM.

For QTARK(Crotonyl(E))STGG (peptide, UniProt P61830 6-14, looked up) [H3K9cr5-13 peptide (residues 5-13 of H3, crotonylated at lysine 9)], the binding result in test [2] and in test [3] was “binds” throughout.

With QTARK(Ac)STGG (peptide, UniProt P61830 6-14, looked up) [H3K9ac5-13 peptide (residues 5-13 of H3, acetylated at lysine 9)], the binding result in test [2] is recorded as “binds”.
